Data on one molecule can be found in PMC3561323 (PLoS ONE, 2013).

This assay has as its target integrin linked kinase (ILK), full-length human (human, UniProt Q13418 1-452). Put plainly: SEC; purified IPPmin complex on a calibrated gel-filtration column (Superdex 200 10/300 GL); 20 mM Tris pH 7.5, 150 mM NaCl, 1 mM DTT. As to conditions: both partners purified. On the technique in general: In gel filtration, larger molecules generally elute earlier.

integrin linked kinase (ILK), full-length human, sequence (Q13418 whole entry): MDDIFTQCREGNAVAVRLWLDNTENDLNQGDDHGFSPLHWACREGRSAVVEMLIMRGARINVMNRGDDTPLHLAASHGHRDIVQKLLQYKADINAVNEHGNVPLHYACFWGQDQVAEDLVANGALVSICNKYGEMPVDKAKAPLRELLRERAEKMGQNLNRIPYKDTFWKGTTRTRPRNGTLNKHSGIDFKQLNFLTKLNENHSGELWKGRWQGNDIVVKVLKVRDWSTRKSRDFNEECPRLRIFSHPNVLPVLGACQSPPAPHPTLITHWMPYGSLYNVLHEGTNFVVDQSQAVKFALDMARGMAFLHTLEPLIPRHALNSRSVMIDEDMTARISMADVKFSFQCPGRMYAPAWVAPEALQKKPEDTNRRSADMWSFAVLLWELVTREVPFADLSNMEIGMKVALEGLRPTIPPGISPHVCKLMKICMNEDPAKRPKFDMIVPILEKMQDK

B1: LIM1 domain of PINCH1 (domain or fragment, human, UniProt P48059 6-68, looked up)
chain: ASATCERCKGGFAPAEKIVNSNGELYHEQCFVCAQCFQQFPEGLFYEFEGRKYCEHDFQMLFA
Take B1: the binding result is recorded as “binds”.
